Measurements: patent US20250382602
Numbering of substitutions follows the chain as printed.

What was measured:
[1] = target: T1, Dda 1993 K177N K177N (Enterobacteria phage T4) (UniProt P32270); conditions: nanopore translocation; background mutations not given
T1 sequence: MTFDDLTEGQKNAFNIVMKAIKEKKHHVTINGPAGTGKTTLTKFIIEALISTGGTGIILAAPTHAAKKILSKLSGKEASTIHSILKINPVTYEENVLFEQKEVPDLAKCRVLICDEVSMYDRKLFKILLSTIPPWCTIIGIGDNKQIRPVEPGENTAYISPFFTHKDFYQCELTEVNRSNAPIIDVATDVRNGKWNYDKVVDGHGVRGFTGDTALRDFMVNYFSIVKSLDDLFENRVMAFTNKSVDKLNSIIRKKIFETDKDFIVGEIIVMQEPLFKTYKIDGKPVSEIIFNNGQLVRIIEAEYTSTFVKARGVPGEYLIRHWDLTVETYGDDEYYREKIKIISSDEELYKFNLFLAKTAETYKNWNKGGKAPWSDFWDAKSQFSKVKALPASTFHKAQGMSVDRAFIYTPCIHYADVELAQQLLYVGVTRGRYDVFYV

[2] = target: T2, Dda 1993 K177I K177I (Enterobacteria phage T4) (UniProt P32270); conditions: nanopore translocation; background mutations not given
T2 sequence: T1 sequence with N177I

[3] = target: T3, Dda 1993 K177S K177S (Enterobacteria phage T4) (UniProt P32270); conditions: nanopore translocation; background mutations not given
T3 sequence: T1 sequence with N177S

[4] = target: T4, Dda 1993 K177D K177D (Enterobacteria phage T4) (UniProt P32270); conditions: nanopore translocation; control is an unspecified Dda variant, background mutations not given
T4 sequence: T1 sequence with N177D

[5] = target: T5, Dda 1993 K177T K177T (Enterobacteria phage T4) (UniProt P32270); conditions: nanopore translocation; background mutations not given
T5 sequence: T1 sequence with N177T

[6] = target: T6, Dda 1993 K177G K177G (Enterobacteria phage T4) (UniProt P32270); conditions: nanopore translocation; background mutations not given
T6 sequence: T1 sequence with N177G

## barcoded 3.6 kb DNA analyte ligated to sequencing Y adaptor
[1]
  activity (bps speed delta vs control): 2.4
[2]
  activity (bps speed delta vs control): 43
[3]
  activity (bps speed delta vs control): -31.1
[4]
  activity (bps speed delta vs control): 3.07
[5]
  activity (bps speed delta vs control): 22.6
[6]
  activity (bps speed delta vs control): -27.6
